Earlier results as cited in PMC11302571.

Molecular target: BT-R3 (Anopheles gambiae)

Cry4B toxin (from UniProt P05519)
Kd: 36 nM
